Reference: article PMC4351179

Target: human DNA polymerase theta (Polθ), polymerase domain, wild type (human)
Assay: SEC

stoichiometry N: 2
Substance: human DNA polymerase theta (Polθ), polymerase domain, wild type (domain or fragment)
